The target in assay [1] is T1, AVI-tagged DOK3(1–330 aa) (UniProt Q7L591 1-330).
T1 sequence (looked up): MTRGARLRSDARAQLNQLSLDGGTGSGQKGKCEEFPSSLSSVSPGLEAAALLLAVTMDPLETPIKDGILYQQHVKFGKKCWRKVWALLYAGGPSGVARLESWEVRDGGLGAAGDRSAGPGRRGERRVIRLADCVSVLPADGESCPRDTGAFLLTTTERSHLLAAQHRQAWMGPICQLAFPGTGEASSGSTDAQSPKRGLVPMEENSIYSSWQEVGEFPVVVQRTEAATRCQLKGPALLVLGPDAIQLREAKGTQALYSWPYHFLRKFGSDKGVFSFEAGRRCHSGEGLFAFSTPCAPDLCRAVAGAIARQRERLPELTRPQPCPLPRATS
Briefly: BLI.

Assay [2] addresses T1, AVI-tagged DOK3(1–330 aa). Briefly: BLI. The source holds these as a separate data set.

As usually defined, the Kd is a measure of binding affinity in units of concentration. A lower Kd goes with higher affinity.

B1: His-PRDX1 recombinant protein (WT, 1-199 aa) (natural protein, UniProt Q06830 1-199, looked up)
chain: MSSGNAKIGHPAPNFKATAVMPDGQFKDISLSDYKGKYVVFFFYPLDFTFVCPTEIIAFSDRAEEFKKLNCQVIGASVDSHFCHLAWVNTPKKQGGLGPMNIPLVSDPKRTIAQDYGVLKADEGISFRGLFIIDDKGILRQITVNDLPVGRSVDETLRLVQAFQFTDKHGEVCPAGWKPGSDTIKPDVQKSKEYFSKQK
In the case of B1, the “KD with SAB” value in assay [1] was found to be 1.77 µM. For the same molecule, in assay [2], the Kd amounted to 15.5 µM.

For the origin of these results see publication PMC12399193 (Acta Pharmaceutica Sinica. B, 2025).
